Measurements taken from patent publication US11905559B2, “Materials and methods for controlling gene expression” (priority 2016, dated 2024).
Numbering of substitutions follows the chain as printed.

How the values were obtained:
guanine-riboswitch = conditions: previous in-line measurements; cited from earlier work
[1] = Force-ramp mechanical assay of the full-length xpt leader mRNA; format: physicochemical
Description: A dual-beam high-resolution optical tweezers was built that can detect short-lived fluctuations at sub-milliseconds (<0.25 msec) time scale at a single base pair level, with high precision and accuracy. This instrument was used to investigate the conformational dynamics of the full-length (FL) guanine-responsive riboswitch (guanine-riboswitch) and its 69-nt aptamer domain present in the 5′-UTR of an xpt-pbuX operon in B. subtilis. It has been shown that the xpt leader mRNA selectively downregulates the gene expression by transcription termination in the presence of guanine (FIG. 17B). The FL xpt mRNA was subjected to mechanical assays in order to identify the terminator and an anti-terminator conformation. […] The unfolding trajectory (red curve) indicated the melting of the 35-nt terminator hairpin at 16.1±0.5 pN (n=1200 traces) with a transition distance, ΔXt˜15±3 nm. A second transition at 17.9±0.9 pN with a distance, ΔXa˜25-30 nm indicated the unfolding of the 69-nt aptamer. […] The terminator mutant (FL-mutant, FIGS. 17D-E) abolished the 16.0 pN transition, thus supporting the structural assignment.
The forces on the bead were recorded at an acquisition rate of 44 kHz. Data was collected from the stereo phone jacks on the ADC boards of the Tweezers instrument and sent to the host computer audio input for analysis by SignalScope program (Faber Acoustical, LLC). As shown in the plot, power spectral density is fitted with the Lorentzian fit to yield the corner frequency (fc) that was used to calculate the trap stiffness. This setup was used to perform three different mechanical reactions: force-ramp (FR), constant-force (CF) and force-jump (FJ) under a controlled force. In the force-ramp (FR) experiment, the trap was moved at 200 nm/s, which corresponded to a loading rate 7-8 pN/s. […] The force-ramp data is plotted as force vs. extension curves (FEC).

[2] = Constant-force / force-jump assay of the full-length riboswitch RNA; format: physicochemical
Description: Moreover, as the successive traces were not reproducible, the anti-terminator conformation could not be assigned to the transitions. […] The function of the random structures can be presumed to destabilize the terminator hairpin and turn “ON” the gene expression. The un-bound trajectories are referred to as the “non-terminator” conformations to distinguish from the traditionally defined anti-terminator conformation. […] To assess the mode of allosteric modulation (tilt-equilibrium or induced-fit), the mechanical unfolding assay was performed in the presence of guanine salts ranging from 1 nM to 1 μM. […] Had this been the case, a gradual shift would have been observed in the equilibrium toward the terminator conformation according to the tilt-equilibrium model. […] Thus, at 16 pN, the terminator fluctuates between the open and the closed states, observed as Y*↔Y and Z*↔Z in FIG. 23A. […] The Keq˜0.1
[formula] implied that the hairpin preferred the open state (90%) at 16 pN (the Keq˜1 at 15.6 pN). The expression platform dynamics and the unfolding scheme are shown in FIGS. 27A-B. That the bi-stabilities are due to the terminator was further confirmed by subjecting the FL-mutant to similar cycles (FIG. 23B). […] The findings thus underscore that only the guanine induces a terminator conformation to the expression platform. Transition Y→Z* (ΔX=14±2.5 nm) indicated a complete unfolding of the aptamer (FIGS. 27A-B).
In a constant-force (CF) experiment, the RNA is held at a preset force through feedback control. The preset force typically fluctuated around the mean with a standard deviation ±0.15 pN. In this mode, data is recorded from 4-40 kHz to capture the fast intermediates. The plots are shown as extension vs. time (as in FIG. 6A). In force-jump (FJ) assay, the force is suddenly jumped from one force to another, and then held constant thereafter, as shown in FIGS. 23A-B.

In the case of `Nc1nc(N)c2[nH]cnc2n1` [DAP, 2,6-diaminopurine], the Kd (guanine-riboswitch) is given as roughly 10 µM.

B1: FL xpt mRNA: full-length wild-type guanine riboswitch sequence comprising the aptamer domain and expression platform (SEQ ID NO: 12) (nucleic acid)
chain: AAUAUAAUAGGAACACUCAUAUAAUCGCGUGGAUAUGGCACGCAAGUUUCUACCGGGCACCGUAAAUGUCCGACUAUGGGUGAGCAAUGGAACCGCACGUGUACGGUUUUUUGUGAUAUCAGCAUUGCUUGCUCUUUAUUUGAGCGGGCAAUGCUUUUUUUAUUCUCAUAACGGAGGUAGACAGGAUG
modifications: aptamer_domain (14)..(82); expression_platform (83)..(188)
With B1 the “Force of second transition (unfolding of the 69-nt aptamer)” value ([1]; 1 μM guanine) was 17.9±0.9 pN, the “Transition distance ΔXa (aptamer)” value ([1]; 1 μM guanine) was 25-30 nm and the “Transition distance ΔXt (terminator)” value ([1]; 1 μM guanine) was roughly 15±3 nm. The “Melting force of the 35-nt terminator hairpin” value ([1]; 1 μM guanine, n=1200 traces) was 16.1±0.5 pN, the “Keq of terminator hairpin” value ([2]; 15.6 pN, +G) was roughly 1 and the “Keq of terminator hairpin” value ([2]; 16 pN, +G) was roughly 0.1. The “Terminator hairpin in the open state” value ([2]; 16 pN, +G) was 90%, the “ΔX of transition Y→Z* (complete unfolding of the aptamer)” value ([2]; 16 pN, +G) was 14±2.5 nm and the “Change in extension of terminator open/closed bi-stabilities (Y*↔Y, Z*↔Z)” value ([2]; 16 pN, +G (FIG. 23A: 200 nM guanine)) was 15±1.7 nm.

B2: FL-mutant: full-length mutant guanine riboswitch sequence comprising the aptamer domain and expression platform (SEQ ID NO: 13) (nucleic acid)
chain: B1 chain with G148C, C149G, G153C, C154G
modifications: aptamer_domain (14)..(82); expression_platform (83)..(188)
For B2, the “16.0 pN terminator transition (in words)” value ([1]; force-extension curve) was “abolished” and the “Terminator hopping (in words)” value ([2]; 75 traces, 200 nM guanine) was “without exhibiting a terminator hopping”.
